Measurements as given in US20240384250A1, “FIBROBLAST GROWTH FACTOR 23 MODULATING COMPOUNDS” (THE UAB RESEARCH FOUNDATION, priority 2021, published 2024).

T1: FGF23 (Homo sapiens, UniProt Q9GZV9)
T1 construct: purchased R&D Systems 2604FG025/CF (human) or 2629FG025/CF (mouse)
T1 sequence (Q9GZV9 25-251): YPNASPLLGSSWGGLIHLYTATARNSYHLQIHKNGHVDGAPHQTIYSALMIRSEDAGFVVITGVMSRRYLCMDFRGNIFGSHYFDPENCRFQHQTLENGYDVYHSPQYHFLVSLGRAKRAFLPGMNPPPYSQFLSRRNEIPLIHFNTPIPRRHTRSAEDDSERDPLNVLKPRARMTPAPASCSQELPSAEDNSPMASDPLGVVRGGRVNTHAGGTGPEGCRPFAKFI

B1: FGF23: recombinant fibroblast growth factor 23 protein from R&D Systems (protein)
chain: YPDTSPLLGSNWGSLTHLYTATARTSYHLQIHRDGHVDGTPHQTIYSALMITSEDAGSVVITGAMTRRFLCMDLHGNIFGSLHFSPENCKFRQWTLENGYDVYLSQKHHYLVSLGRAKRIFQPGTNPPPFSQFLARRNEVPLLHFYTVRPRRHTRSAEDPPERDPLNVLKPRPRATPVPVSCSRELPSAEEGGPAASDPLGVLRRGRGDARGGAGGADRCRPFPRFV
B2: sKL: recombinant soluble α-klotho ectodomain, mouse aa 35-982 and human aa 34-981, FLAG- or Strep/His-tagged, purified from HEK293 cells (protein)
chain: EPGDGAQTWARFSRPPAPEAAGLFQGTFPDGFLWAVGSAAYQTEGGWQQHGKGASIWDTFTHHPLAPPGDSRNASLPLGAPSPLQPATGDVASDSYNNVFRDTEALRELGVTHYRFSISWARVLPNGSAGVPNREGLRYYRRLLERLRELGVQPVVTLYHWDLPQRLQDAYGGWANRALADHFRDYAELCFRHFGGQVKYWITIDNPYVVAWHGYATGRLAPGIRGSPRLGYLVAHNLLLAHAKVWHLYNTSFRPTQGGQVSIALSSHWINPRRMTDHSIKECQKSLDFVLGWFAKPVFIDGDYPESMKNNLSSILPDFTESEKKFIKGTADFFALCFGPTLSFQLLDPHMKFRQLESPNLRQLLSWIDLEFNHPQIFIVENGWFVSGTTKRDDAKYMYYLKKFIMETLKAIKLDGVDVIGYTAWSLMDGFEWHRGYSIRRGLFYVDFLSQDKMLLPKSSALFYQKLIEKNGFPPLPENQPLEGTFPCDFAWGVVDNYIQVDTTLSQFTDLNVYLWDVHHSKRLIKVDGVVTKKRKSYCVDFAAIQPQIALLQEMHVTHFRFSLDWALILPLGNQSQVNHTILQYYRCMASELVRVNITPVVALWQPMAPNQGLPRLLARQGAWENPYTALAFAEYARLCFQELGHHVKLWITMNEPYTRNMTYSAGHNLLKAHALAWHVYNEKFRHAQNGKISIALQADWIEPACPFSQKDKEVAERVLEFDIGWLAEPIFGSGDYPWVMRDWLNQRNNFLLPYFTEDEKKLIQGTFDFLALSHYTTILVDSEKEDPIKYNDYLEVQEMTDITWLNSPSQVAVVPWGLRKVLNWLKFKYGDLPMYIISNGIDDGLHAEDDQLRVYYMQNYINEALKAHILDGINLCGYFAYSFNDRTAPRFGLYRYAADQFEPKASMKHYRKIIDSNGFPGPETLERFCPEEFTVCTECSFFHTRKS
modifications: left off: small tags and cut ends
notes: recombinant soluble α-klotho ectodomain, mouse aa 35-982 and human aa 34-981, FLAG- or Strep/His-tagged, purified from HEK293 cells

Experiments:
male BALB/c mice = test: Serial FGF23 and heparin injections in mice, echocardiography and heart weight; format: in vivo, mouse; conditions: heparin 125 USP/kg and/or FGF23 40 μg/kg
Experimental: FGF23 injections were administered following a similar protocol established previously. 13,72,73 Briefly, 12-week-old male BALB/c mice (The Jackson Laboratory) underwent tail vein injections. The day before the experiment, mice underwent echocardiographic analysis, as described below. Mice were anesthetized in 2.5% isoflurane and placed on a heat pad. Each group consisted of 5 mice, and different groups were injected with isotonic saline, heparin, FGF23, or FGF23 and heparin combined. Per injection, 40 μg/kg of FGF23 and 125, 62.5, or 12.5 USP/kg of heparin dissolved in 200 μl of isotonic saline were used, with 8 hours were used between injections for a total of 5 consecutive days. All injections were performed via the lateral tail vein. On the morning of the sixth day, 16 hours after the final tail vein injection, animals underwent echocardiographic analysis and were killed. Middle sections of hearts were cut along the short axis and stored overnight in 4% phosphate-buffered formaldehyde solution. Sections were sent to IDEXX Laboratories for embedding, hematoxylin and eosin (H&E) staining, and sectioning. Sections for wheat germ agglutinin (WGA) labeling were not stained by IDEXX Laboratories.
Echocardiographic analysis was performed on day 6 of the experiment for FGF23-injected mice by using the Vevo 770 or Vevo 3100 imaging system (FUJIFILM VisualSonics). Animals were anesthetized with 1.5% isoflurane, and normal body temperature was maintained using a rectal probe for temperature monitoring. For analysis, both B- and M-mode images were obtained in the short- and long-axis views. Correct positioning of the transducer was ensured using B-mode imaging in the long-axis view before switching to the short-axis view. Image analysis was performed using Vevo 770 Workstation and Vevo LAB software (FUJIFILM VisualSonics).

FGF23 = target: T1, FGF23; test: Co-immunoprecipitation of FGF with FLAG-tagged sKL on anti-FLAG beads; format: binding; conditions: absence of FGFR
Experimental: To study the interaction between FLAG-tagged sKL and different FGF isoforms, co-immunoprecipitation studies were conducted. FLAG beads (A2220, Sigma-Aldrich) were used at 50 ul of 50% stock slurry per sample. Beads were washed 5× with activity buffer (50 mM Tris [pH 7.4], 200 mM NaCl, 0.01% Tween 20, Sigma-Aldrich). Bead spin-down assays were all performed for 2 minutes at 5000 g. Fifty microliters of a 50% slurry of beads per sample was resuspended in 1 ml of activity buffer in a 1.5-ml snap cap tube. One microgram of FLAG-tagged sKL or Carboxy-terminal bacterial alkaline phosphatase (BAPC; P7457, Sigma-Aldrich) was incubated with the beads for 1 hour on a bead rotator. Beads were then pelleted at 5000 g for 2 minutes and washed 5× with activity buffer. Beads were resuspended in 1 ml of activity buffer and samples with 500 ng of FGF. Beads were incubated for 1 hour on a tube rotator, and beads were pelleted and washed as before. One hundred microliters of I× Laemmli sample buffer (1610737, Bio-Rad) with 1.42 M 2-mercaptoethanol was added, and samples were boiled for 5 minutes and analyzed using sodium dodecylsulfate-polyacrylamide gel electrophoresis (SDS-PAGE) and Western blotting, as described below herein.
The sample (20 μl) was loaded onto Mini-PROTEAN TGX Precast Gel 4-20% for experiments with <9 samples (4568094, Bio-Rad) or Criterion TGX Precast Gel 4-20% (5678094, Bio-Rad) for experiments with >9 samples. Gels were run in 1× Tris/Glycine/SDS buffer (1610732, Bio-Rad) at 150 V and stopped when the sample dye reached the end of the gel. Gels were removed and electrotransferred via a semi-dry cassette (1703940, Bio-Rad) in I× Tris/Glycine buffer (1610734, Bio-Rad) with 20% methanol. Gels were transferred onto polyvinylidene diflouride membranes (IPVH00010, Millipore) at 20 V for 1 hour. Membranes were then blocked in 5% dried milk with 0.5% Tween 20 diluted in Tris-buffered saline (TBST; pH 7.5) for 1 hour and probed with antibodies against specific antigens at 1:1000 in TBST with 5% dried milk. Blots were washed 3× for 5 minutes in TBST and probed with HRP-coupled secondary antibodies against specific species at 1:10,000 in TBST with 5% dried milk. Membranes were imaged on the SRX-101A X-ray film developer (Konica Minolta).

Molecule	Endocardial % EF (male BALB/c mice) [%]	Endocardial % FAC (male BALB/c mice) [%]	Endocardial Area; s (male BALB/c mice) [mm²]	Endocardial major; d (male BALB/c mice) [mm]	Epicardial Area: s (male BALB/c mice) [mm²]	Epicardial Area; d (male BALB/c mice) [mm²]	Heart rate (male BALB/c mice) [BPM]	LV Mass; d (male BALB/c mice) [mg]	T; d (male BALB/c mice) [mm]	Endocardial Area; d (male BALB/c mice; i.v. 2 times per day for 5 days, mean ± SEM) [mm²]	FGF23 co-precipitation with immobilized FLAG-sKL (FGF23; listed as FLAG-sKL)	FGF23 co-precipitation with immobilized FLAG-sKL (FGF23; listed as FLAG-tagged sKL)
B1	61.57 ± 3.48	51.38 ± 2.02	4.88 ± 0.34	7.94 ± 0.09	19.4 ± 0.46	23.1 ± 0.45	452.70 ± 4.48	122.10 ± 3.05	0.94 ± 0.02	9.93 ± 0.39		
B2											bound FGF23	FGF23 could be co-precipitated
